From article PMC7076939 come the findings set out here.

Series [1] relates to ATTO-MBD2 (MBD2FLsc labeled with ATTO 565) (human). Nature of the series: nanochannel single-molecule fluorescence. The conditions noted are these: Anisotropy: 20 mM HEPES, 50 mM NaCl, 3 mM MgCl2, 3 mM EDTA, pH 7.5, 24 nM DNA, temperature not given, AFM: 20 mM HEPES, 10 mM Mg(OAc)2, 100 mM NaCl.
Series [2] has the same test system. Nature of the series: fluorescence anisotropy. Particulars: 24 nM DNA, text rounds to 25±5, 5-methylcytosine at one CpG, Anisotropy: 20 mM HEPES, 50 mM NaCl, 3 mM MgCl2, 3 mM EDTA, pH 7.5, 24 nM DNA, temperature not given, AFM: 20 mM HEPES, 10 mM Mg(OAc)2, 100 mM NaCl. (In general: In fluorescence polarisation assays a small probe gives low polarisation when free and higher when bound to something large.)

In series [3] the test system is MBD2FLsc (single-chain MBD2 with scMBD2-GATAD2A), unlabeled (human). The series is described as follows: fluorescence anisotropy. Particulars: 24 nM DNA, text rounds to 12±4, 5-methylcytosine at one CpG, Anisotropy: 20 mM HEPES, 50 mM NaCl, 3 mM MgCl2, 3 mM EDTA, pH 7.5, 24 nM DNA, temperature not given, AFM: 20 mM HEPES, 10 mM Mg(OAc)2, 100 mM NaCl.
Another series deals with MeCP2 (human). The series is described as follows: fluorescence anisotropy. The conditions noted are these: 24 nM DNA, text gives error 4.4, 5-methylcytosine at one CpG, Anisotropy: 20 mM HEPES, 50 mM NaCl, 3 mM MgCl2, 3 mM EDTA, pH 7.5, 24 nM DNA, temperature not given, AFM: 20 mM HEPES, 10 mM Mg(OAc)2, 100 mM NaCl.

What is called Kd is the free concentration of one partner at which half of the binding sites on the other are occupied at equilibrium, for simple one-to-one binding.

In turn, methylated lambda DNA yielded a binding signal (fold bound vs unmethylated) in series [1] (CpG 5-methylcytosine) of 10.
For unmethylated lambda DNA, the binding signal (fraction of methylated) in series [1] came to 0.1.
As for “FAM-labeled dsDNA with one methylated CpG”, the values for the Kd (in series [2]; in series [3]; with MeCP2 (human)) were 24.5 nM, 11.9 nM and 7.5 nM, respectively.
